Assay results published in article PMC8989322 (PLoS Pathogens, 2022).

B1: mAb236 (antibody, V domains shown)
VH: EVQLVESGGGLVQPGGSLRLSCVASGFNFTTYSMNWVRQAPGKGLEWVSYISSHSNLIYYATSVKGRFTISRDNAKNSLYLQMNSLRAEDTALYYCARGGSLHPSAGADWIDPWGQGTLVTVSS
VL: SYELTQAPSVSVSPGQTATITCSGDKLGDKFTSWYQQKPGQSPVLVIYQDSKRPSGIPERFSASNSGNTATLTISGTRAMDEADYYCQAWDSNTYVFGTGTRVAVL
notes: variable region as the heavy chain of m2 (PDB 7RXJ); as the light chain of m2 (PDB 7RXJ); IgG (captured by anti-human Fc); source: 293F cells, purified (Protein G Sepharose)
B2: mAb234 (antibody, V domains shown)
VH: EVQLVESGGGLVKPGGSLRLSCAASGFNFSTHIMNWVRQAPGKGLEWVSSISSSGTYIYYADSMKGRFTISRDNPKNSLYLQMNSLRAEDTAVYYCARARGFIQFHYYMDVWGKGTTVAVSS
VL: SYVLTQPPSVSVAPGKTARITCGGNNIGSKSVHWHQQRPGQAPVLVVYDDKIRPSGIPERFSGSNSGNTATLIISRVEAGDEADYYCQVWHSSSDPVVFGGGTKLTVL
notes: variable region as the heavy chain of m1 (PDB 7RXI); as the light chain of m1 (PDB 7RXI); IgG (captured by anti-human Fc); source: 293F cells, purified (Protein G Sepharose)
B3: mAb352 (antibody, V domains shown)
VH: EVQLVESGGGLVKPGGSLRLSCAASGFSFSEYRMNWVRQAPGKGLEWVSFISSSGTYIDYADSVKGRFTISRDNVNNSLYLQMNNLRAGDTAVYYCARGMGIAVRRFDYWGQGTLVSVSS
VL: SYVLTQPPSVSVAPGQTAKITCGGNNIGSESVHWYQQKPGQAPVLVVYDDAVRPSGIPERFSGSNSRNTATLTISRVEAGDEAAYYCQVWDSSTVASFGGGTKLTVL
notes: variable region as the heavy chain of m3 (PDB 7S0X); as the light chain of m3 (PDB 7S0X); IgG (captured by anti-human Fc); source: 293F cells, purified (Protein G Sepharose)
B4: mAb1512 (antibody, V domains shown)
VH: KVQLVQSGGGVVQPGRSQRLSCAASGLTLSEYAMHWVRQAPGKGLEWVAVILSDGTKKEYADSVKGRFTISRDNSKNTLYLQMNSLRAEDTAVYYCATDDNILGHCRSKSCQRNYYHGMDVWGQGTTVSVSS
VL: DIVMTQSPLSLPVTPGEPASISCRSSQSLLHSNGKNYLDWYLQKPGQSPQLLIYLGSDRASGVPDRFSGSGSGTDFTLSISRVEAEDVGVYYCMQALQTPFTFGPGTKVDIK
notes: variable region as the heavy chain of m5 (PDB 7RXP); as the light chain of m5 (PDB 7RXP); IgG (captured by anti-human Fc); source: 293F cells, purified (Protein G Sepharose)
B5: Fab236 (Fab, V domains shown)
VH: EVQLVESGGGLVQPGGSLRLSCVASGFNFTTYSMNWVRQAPGKGLEWVSYISSHSNLIYYATSVKGRFTISRDNAKNSLYLQMNSLRAEDTALYYCARGGSLHPSAGADWIDPWGQGTLVTVSS
VL: SYELTQAPSVSVSPGQTATITCSGDKLGDKFTSWYQQKPGQSPVLVIYQDSKRPSGIPERFSASNSGNTATLTISGTRAMDEADYYCQAWDSNTYVFGTGTRVAVL
notes: heavy chain of Fab236; light chain of Fab236; From an RTS,S/AS01 vaccinee; alpha-ctCSP class (IGHV3-21 or IGHV3-48 with IGLV3-21 or IGLV3-1); source: ExpiCHO cells, purified (HiTrap Protein G HP, size exclusion chromatography)
B6: Fab1488 (Fab, V domains shown)
VH: EVHLVESGGGLVKPGGSLRLSCAASGFTFSSYTMNWVRQAPGKGLEWVSSISSSSTYIYYADSVRGRFTISRDNAKNSLYLQMNSLRAEDSAVYYCARRAGGFDAYYFDYWGQGTLVTVSS
VL: not shown
notes: heavy chain of Fab1488; light chain of Fab1488; From an RTS,S/AS01 vaccinee; alpha-ctCSP class (IGHV3-21 or IGHV3-48 with IGLV3-21 or IGLV3-1); source: ExpiCHO cells, purified (HiTrap Protein G HP, size exclusion chromatography)
B7: Fab234 (Fab, V domains shown)
VH: EVQLVESGGGLVKPGGSLRLSCAASGFNFSTHIMNWVRQAPGKGLEWVSSISSSGTYIYYADSMKGRFTISRDNPKNSLYLQMNSLRAEDTAVYYCARARGFIQFHYYMDVWGKGTTVAVSS
VL: SYVLTQPPSVSVAPGKTARITCGGNNIGSKSVHWHQQRPGQAPVLVVYDDKIRPSGIPERFSGSNSGNTATLIISRVEAGDEADYYCQVWHSSSDPVVFGGGTKLTVL
notes: heavy chain of Fab234; light chain of Fab234; From an RTS,S/AS01 vaccinee; alpha-ctCSP class (IGHV3-21 or IGHV3-48 with IGLV3-21 or IGLV3-1); source: ExpiCHO cells, purified (HiTrap Protein G HP, size exclusion chromatography)
B8: Fab352 (Fab, V domains shown)
VH: EVQLVESGGGLVKPGGSLRLSCAASGFSFSEYRMNWVRQAPGKGLEWVSFISSSGTYIDYADSVKGRFTISRDNVNNSLYLQMNNLRAGDTAVYYCARGMGIAVRRFDYWGQGTLVSVSS
VL: SYVLTQPPSVSVAPGQTAKITCGGNNIGSESVHWYQQKPGQAPVLVVYDDAVRPSGIPERFSGSNSRNTATLTISRVEAGDEAAYYCQVWDSSTVASFGGGTKLTVL
notes: heavy chain of Fab352; light chain of Fab352; From an RTS,S/AS01 vaccinee; alpha-ctCSP class (IGHV3-21 or IGHV3-48 with IGLV3-21 or IGLV3-1); source: ExpiCHO cells, purified (HiTrap Protein G HP, size exclusion chromatography)
B9: Fab1512 (Fab, V domains shown)
VH: KVQLVQSGGGVVQPGRSQRLSCAASGLTLSEYAMHWVRQAPGKGLEWVAVILSDGTKKEYADSVKGRFTISRDNSKNTLYLQMNSLRAEDTAVYYCATDDNILGHCRSKSCQRNYYHGMDVWGQGTTVSVSS
VL: DIVMTQSPLSLPVTPGEPASISCRSSQSLLHSNGKNYLDWYLQKPGQSPQLLIYLGSDRASGVPDRFSGSGSGTDFTLSISRVEAEDVGVYYCMQALQTPFTFGPGTKVDIK
notes: heavy chain of Fab1512 (23-amino-acid CDR H3); light chain of Fab1512; From an RTS,S/AS01 vaccinee; beta-ctCSP class; source: ExpiCHO cells, purified (HiTrap Protein G HP, size exclusion chromatography)

These binders were tested against T1, biotinylated ctCSP Pf16 peptide (residues 283–375 of P. falciparum 3D7 CSP) (Plasmodium falciparum 3D7, UniProt Q7K740, biotin (position not given)) (assay: ELISA; expressed mAbs screened for reactivity to Pf16 C-term peptide, as previously described [36]). Conditions: both partners purified.
T1 construct: circumsporozoite protein (CSP), P. falciparum 3D7, residues 283-375 (C-terminal domain); the results say biotinylated ctCSP (283-375); also called Pf16 C-term peptide; source: made by Biomatik (Wilmington, Delaware)
T1 sequence (Q7K740 283-375): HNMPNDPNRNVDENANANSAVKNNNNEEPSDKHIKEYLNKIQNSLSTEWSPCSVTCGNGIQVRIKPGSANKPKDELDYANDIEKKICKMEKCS
B1: binds.
B2: binds.
B3: binds.
B4: binds.

These binders were tested against T2, αTSR domain or ctCSP (residues 310–375 of P. falciparum 3D7 CSP) (Plasmodium falciparum 3D7, UniProt Q7K740) (assay: crystal structure; Fab mixed with ctCSP (310-375) in a 2:1 molar ratio, complex purified by size exclusion chromatography, sitting drop vapor diffusion at 20°C). Conditions: both partners purified.
T2 construct: circumsporozoite protein (CSP), P. falciparum 3D7, residues 310-375 (αTSR domain), followed by a 6xHis tag; pET28a; also called 3D7 peptide; source: E. coli SHUFFLE, purified (Ni cOmplete resin, gel filtration on Superdex 200)
T2 sequence (Q7K740 310-375): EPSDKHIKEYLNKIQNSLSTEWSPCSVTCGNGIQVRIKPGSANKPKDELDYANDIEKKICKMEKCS
B5: binds.
B6: binds.
B7: binds.
B8: binds.
B9: binds.
